Article PMC8372230

Biological target: extracellular domain (residues Q18 to S740) of human ACE2 fused with human IgG1 Fc (human) (UniProt Q9BYF1)
Test: BLI

Sequence of UniProt Q9BYF1 (Q9BYF1 18-740): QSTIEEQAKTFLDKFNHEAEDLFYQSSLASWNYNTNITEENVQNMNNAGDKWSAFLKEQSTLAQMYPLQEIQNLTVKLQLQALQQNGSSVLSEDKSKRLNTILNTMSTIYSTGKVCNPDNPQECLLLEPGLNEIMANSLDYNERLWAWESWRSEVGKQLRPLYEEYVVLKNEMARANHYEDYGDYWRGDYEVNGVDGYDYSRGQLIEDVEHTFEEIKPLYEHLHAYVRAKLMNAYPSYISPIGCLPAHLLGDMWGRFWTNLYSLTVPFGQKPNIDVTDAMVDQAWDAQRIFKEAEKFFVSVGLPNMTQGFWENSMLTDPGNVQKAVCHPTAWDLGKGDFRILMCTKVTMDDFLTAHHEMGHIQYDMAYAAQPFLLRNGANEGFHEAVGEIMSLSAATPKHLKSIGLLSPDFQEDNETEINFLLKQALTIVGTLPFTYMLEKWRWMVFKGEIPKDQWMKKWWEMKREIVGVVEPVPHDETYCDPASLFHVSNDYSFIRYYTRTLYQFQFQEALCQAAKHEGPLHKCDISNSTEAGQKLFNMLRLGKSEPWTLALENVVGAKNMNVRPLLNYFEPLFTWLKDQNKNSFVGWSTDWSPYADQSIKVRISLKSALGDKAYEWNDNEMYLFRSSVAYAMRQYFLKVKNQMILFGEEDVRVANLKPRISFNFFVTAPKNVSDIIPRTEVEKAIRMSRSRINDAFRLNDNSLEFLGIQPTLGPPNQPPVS

With “yeast-derived monomeric RBD of SARS-CoV-2 (residues 320-550, C-terminal 6x His-tag) (domain or fragment)” the Kd was 9.07 nM, the koff was 0.00239 s⁻¹ and the kon was 264000 M⁻¹ s⁻¹.
